Residue numbers refer to the chain shown, from its start.
B1: 194 (protein)
chain: MTTRTRILTAFLSLLAANACAADAAPAAPHTVVLRAARMFDGASGKLVDHPQLTIVGNKIVRIAQGDKAEVPAGAEVVDLGDATLLPGFIDAHVHLSGQSSDNWYGDFFDNMMRFPAEQALYGAYYARITLEAGFTSVRDVGSTDWVALGLRNAIDAGKVPGPRMLVSNYAVGSTGGHADQDPIPPHKLPLAGPLQGVCNGPEECRAAVRYQIKYGANVIKFMPSGGVLSLSDPVDAPELSQDEMNAVIGESHAWGRKVAAHAHGDKAAKMAVAAGVDSIEHGSFIEDDTLRAMKAKNVYLVPTISAIAHVEEKIGTFPPVIAEKGRAAAAHLRQTFRHAVQIGVPIALGTDAGVFAHGSNAREFRYMVENGLTPAQALLAGTANAARLLGTFDRVGTLEAGKLADVVAVPGNPIADITVTERPLFVMKDGVVVRRDAVR
modifications: exemplary polypeptide
B2: 196 (protein)
chain: B1 chain with F356V
modifications: exemplary polypeptide
B3: 208 (protein)
chain: B1 chain with H30P, F356G
modifications: exemplary polypeptide
B4: 213 (protein)
chain: B1 chain with S100D, F356G
modifications: exemplary polypeptide
B5: 197 (protein)
chain: B1 chain with F356Y
modifications: exemplary polypeptide
B6: 206 (protein)
chain: B1 chain with H30E, F356G
modifications: exemplary polypeptide
B7: 203 (protein)
chain: B1 chain with I322M, F356G
modifications: exemplary polypeptide
B8: 201 (protein)
chain: B1 chain with W104Y, F356G
modifications: exemplary polypeptide
B9: 211 (protein)
chain: B1 chain with H50N, F356G
modifications: exemplary polypeptide
B10: 207 (protein)
chain: B1 chain with H30K, F356G
modifications: exemplary polypeptide
B11: 200 (protein)
chain: B1 chain with W104P, F356G
modifications: exemplary polypeptide
B12: 209 (protein)
chain: B1 chain with H30R, F356G
modifications: exemplary polypeptide
B13: 198 (protein)
chain: B1 chain with W104F, F356G
modifications: exemplary polypeptide
B14: 210 (protein)
chain: B1 chain with H50D, F356G
modifications: exemplary polypeptide
B15: 214 (protein)
chain: B1 chain with N103D, F356G
modifications: exemplary polypeptide
B16: 202 (protein)
chain: B1 chain with I322L, F356G
modifications: exemplary polypeptide
B17: 195 (protein)
chain: B1 chain with F356P
modifications: exemplary polypeptide

Test: Enzymatic activity comparison: activity remaining after 65° C. for 10 min at pH 6.0, relative to SEQ ID NO: 1
Type: physicochemical
Settings: not given
Protocol: To compare the temperature behavior and thermostability of selected enzymes to one another, enzyme was incubated at 65° C. for 10 min at pH 6.0. The enzymatic activity remaining after incubation was compared to the remaining activity of the enzyme of SEQ ID NO: 1 after incubation, the latter being set to 100%, see Table 16.

Going from B1 to B2, the “Enzymatic activity remaining after incubation, compared to SEQ ID NO: 1 (set to 100%)” value rises from 45% to 57%.

First: B3
Second: B4
The “Enzymatic activity remaining after incubation, compared to SEQ ID NO: 1 (set to 100%)” value of the first is higher: 35% for the first, 25% for the second.

Going from B5 to B6, the “Enzymatic activity remaining after incubation, compared to SEQ ID NO: 1 (set to 100%)” value rises from 29% to 42%.

Going from B7 to B8, the “Enzymatic activity remaining after incubation, compared to SEQ ID NO: 1 (set to 100%)” value rises from 10% to 54%.

First: B9
Second: B10
The “Enzymatic activity remaining after incubation, compared to SEQ ID NO: 1 (set to 100%)” value of the first is lower: 34% for the first, 37% for the second.

First: B11
Second: B12
The “Enzymatic activity remaining after incubation, compared to SEQ ID NO: 1 (set to 100%)” value of the first is higher: 88% for the first, 31% for the second.

First: B13
Second: B14
The “Enzymatic activity remaining after incubation, compared to SEQ ID NO: 1 (set to 100%)” value of the first is higher: 55% for the first, 39% for the second.

First: B15
Second: B16
The “Enzymatic activity remaining after incubation, compared to SEQ ID NO: 1 (set to 100%)” value of the first is higher: 59% for the first, 25% for the second.

For B17, the “Enzymatic activity remaining after incubation, compared to SEQ ID NO: 1 (set to 100%)” value was 38%.

Test: OTA detoxification activity assay (specific activity, fluorescence reduction ex/em 390/450 nm)
Type: biochemical
Settings: pH 6.0; SEQ ID NO: 1 = 100%
How it was run: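 Recombinant enzyme preparation with 200 ng/mL OTA in 100 mM sodium phosphate, at pH 6.0 and pH 7.5, 37° C. Degradation followed as the fall in fluorescence at ex/em 390/450 nm. Specific activity taken from the initial linear slope; one unit degrades 1 μmol OTA per min at a starting OTA of […].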

Compared with B1, B2 is lower in “Specific OTA detoxification activities in % compared to the enzyme of SEQ ID NO: 1, pH 6.0” value: 78% for the first, 48% for the second.

First: B3
Second: B4
The “Specific OTA detoxification activities in % compared to the enzyme of SEQ ID NO: 1, pH 6.0” value of the first is higher: 135% for the first, 76% for the second.

Going from B5 to B6, the “Specific OTA detoxification activities in % compared to the enzyme of SEQ ID NO: 1, pH 6.0” value rises from 59% to 168%.

Compared with B7, B8 is higher in “Specific OTA detoxification activities in % compared to the enzyme of SEQ ID NO: 1, pH 6.0” value: 100% for the first, 134% for the second.

Compared with B9, B10 is lower in “Specific OTA detoxification activities in % compared to the enzyme of SEQ ID NO: 1, pH 6.0” value: 121% for the first, 87% for the second.

First: B11
Second: B12
The “Specific OTA detoxification activities in % compared to the enzyme of SEQ ID NO: 1, pH 6.0” value of the first is lower: 18% for the first, 143% for the second.

Going from B13 to B14, the “Specific OTA detoxification activities in % compared to the enzyme of SEQ ID NO: 1, pH 6.0” value falls from 111% to 93%.

Compared with B15, B16 is lower in “Specific OTA detoxification activities in % compared to the enzyme of SEQ ID NO: 1, pH 6.0” value: 123% for the first, 59% for the second.

In the case of B17, the “Specific OTA detoxification activities in % compared to the enzyme of SEQ ID NO: 1, pH 6.0” value is reported as 148%.

Same assay, conditions: pH 7.5; SEQ ID NO: 1 = 100%

Compared with B1, B2 is higher in “Specific OTA detoxification activities in % compared to the enzyme of SEQ ID NO: 1, pH 7.5” value: 52% for the first, 58% for the second.

Compared with B3, B4 is lower in “Specific OTA detoxification activities in % compared to the enzyme of SEQ ID NO: 1, pH 7.5” value: 108% for the first, 39% for the second.

Compared with B5, B6 is higher in “Specific OTA detoxification activities in % compared to the enzyme of SEQ ID NO: 1, pH 7.5” value: 29% for the first, 112% for the second.

Going from B7 to B8, the “Specific OTA detoxification activities in % compared to the enzyme of SEQ ID NO: 1, pH 7.5” value rises from 70% to 121%.

Going from B9 to B10, the “Specific OTA detoxification activities in % compared to the enzyme of SEQ ID NO: 1, pH 7.5” value falls from 111% to 72%.

Compared with B11, B12 is higher in “Specific OTA detoxification activities in % compared to the enzyme of SEQ ID NO: 1, pH 7.5” value: 25% for the first, 88% for the second.

Going from B13 to B14, the “Specific OTA detoxification activities in % compared to the enzyme of SEQ ID NO: 1, pH 7.5” value rises from 84% to 102%.

First: B15
Second: B16
The “Specific OTA detoxification activities in % compared to the enzyme of SEQ ID NO: 1, pH 7.5” value of the first is higher: 108% for the first, 47% for the second.

In the case of B17, the “Specific OTA detoxification activities in % compared to the enzyme of SEQ ID NO: 1, pH 7.5” value is reported as 100%.

From patent US20240352438A1, “MEANS AND METHODS FOR DETOXIFYING OCHRATOXIN A” (DSM Austria GmbH, priority 2021, published 2024)
